Experimental data from article PMC7435230, “Selection of a Full Agonist Combinatorial Antibody that Rescues Leptin Deficiency In Vivo” (Advanced Science, 2020).

Assays:
[1] = biological target: T1, mLepR in mouse brain tissue sections (paraventricular nucleus of the hypothalamus) (Mus musculus, C57BL/6 (wild type, …, UniProt P48356)); assay: immunostaining of cells or tissue; 30 um brain sections of wild type, ob/ob and db/db mice, fixed in 4% PFA; staining as for cells; paraventricular nucleus of the hypothalamus; conditions: one partner purified
T1 construct: leptin receptor (LepR), mouse, endogenous in hypothalamus; Fixed tissue sections; also called LepR in tissue; source: endogenous, brain sections of wild type, ob/ob and db/db C57BL/6 mice
T1 sequence (P48356 22-839): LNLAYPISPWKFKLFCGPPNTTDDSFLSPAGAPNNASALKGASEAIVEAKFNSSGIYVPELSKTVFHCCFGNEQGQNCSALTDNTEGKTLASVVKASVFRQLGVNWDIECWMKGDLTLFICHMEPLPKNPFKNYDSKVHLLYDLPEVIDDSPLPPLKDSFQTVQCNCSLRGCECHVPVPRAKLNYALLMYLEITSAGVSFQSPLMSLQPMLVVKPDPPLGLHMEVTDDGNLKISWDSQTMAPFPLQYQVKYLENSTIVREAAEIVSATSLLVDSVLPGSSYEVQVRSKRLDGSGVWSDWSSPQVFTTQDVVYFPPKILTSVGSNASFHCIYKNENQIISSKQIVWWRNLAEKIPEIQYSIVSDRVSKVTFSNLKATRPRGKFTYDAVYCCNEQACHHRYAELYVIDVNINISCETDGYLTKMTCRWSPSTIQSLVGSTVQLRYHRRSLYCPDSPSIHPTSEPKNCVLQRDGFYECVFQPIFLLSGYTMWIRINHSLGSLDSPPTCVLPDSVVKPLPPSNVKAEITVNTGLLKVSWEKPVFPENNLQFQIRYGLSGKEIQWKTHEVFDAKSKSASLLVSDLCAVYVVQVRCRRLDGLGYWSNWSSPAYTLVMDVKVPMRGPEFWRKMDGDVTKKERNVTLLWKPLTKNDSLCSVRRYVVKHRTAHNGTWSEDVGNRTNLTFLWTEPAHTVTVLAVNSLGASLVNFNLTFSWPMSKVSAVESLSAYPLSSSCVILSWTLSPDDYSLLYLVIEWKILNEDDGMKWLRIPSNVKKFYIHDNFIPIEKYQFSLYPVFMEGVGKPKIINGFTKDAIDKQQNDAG

[2] = biological target: T2, extracellular domain of human leptin receptor with C-terminal 6xHis tag (human, UniProt P48357); assay: SPR; Biacore T200; LepR-ECD with His tag immobilised on CM5 chip by amine coupling; leptin-Fc and scFv-Fc antibodies in PBS pH 7.4, 1:2 serial dilutions, five concentrations, as analytes; 1:1 binding model; conditions: both partners purified
T2 construct: leptin receptor (LepR), human, extracellular domain; also called hLepR-ECD; hLepR-ECD-His; source: HEK293F, purified from supernatant (HisTrap FF Crude); not shown: 6xHis, C-terminal, kept

[3] = biological target: T3, extracellular domain of human leptin receptor with C-terminal human-Fc tag (human, UniProt P48357 22-839); assay: ELISA; competition with coated leptin, 20 nM hLepR-ECD-Fc
T3 chain: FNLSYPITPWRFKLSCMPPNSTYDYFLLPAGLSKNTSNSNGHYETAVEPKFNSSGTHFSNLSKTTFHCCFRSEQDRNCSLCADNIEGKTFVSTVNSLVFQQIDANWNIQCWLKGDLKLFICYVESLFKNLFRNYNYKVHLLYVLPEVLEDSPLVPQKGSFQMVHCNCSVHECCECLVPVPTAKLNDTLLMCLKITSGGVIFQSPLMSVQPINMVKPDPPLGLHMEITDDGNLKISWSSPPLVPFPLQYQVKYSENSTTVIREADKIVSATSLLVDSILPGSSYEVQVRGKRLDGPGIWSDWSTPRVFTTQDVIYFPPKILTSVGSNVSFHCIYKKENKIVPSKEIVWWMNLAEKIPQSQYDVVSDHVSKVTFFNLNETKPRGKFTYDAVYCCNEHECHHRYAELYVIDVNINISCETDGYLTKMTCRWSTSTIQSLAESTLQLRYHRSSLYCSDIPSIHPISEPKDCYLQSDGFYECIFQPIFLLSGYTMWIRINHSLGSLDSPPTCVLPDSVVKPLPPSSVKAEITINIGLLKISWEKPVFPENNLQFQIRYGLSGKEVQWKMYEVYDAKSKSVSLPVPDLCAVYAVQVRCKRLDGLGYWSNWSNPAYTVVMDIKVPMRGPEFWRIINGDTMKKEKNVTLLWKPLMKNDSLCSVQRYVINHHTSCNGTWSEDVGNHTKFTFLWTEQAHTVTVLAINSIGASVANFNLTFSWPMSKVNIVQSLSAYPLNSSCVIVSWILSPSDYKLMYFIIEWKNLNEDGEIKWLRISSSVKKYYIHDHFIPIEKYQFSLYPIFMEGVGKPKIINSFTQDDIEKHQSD

[4] = biological target: human leptin receptor tagged with eYFP, on HEK293 cells (Homo sapiens, UniProt P48357); assay: cell-based or functional assay
[5] = biological target: T4, mouse leptin receptor tagged with eYFP, on HEK293 cells (Mus musculus, UniProt P48356); assay: immunostaining of cells or tissue; transiently transfected HEK293 cells expressing LepR-eYFP, fixed in 4% PFA; primary antibodies 5 ug/mL at 4 C overnight; Alexa Fluor 555 goat anti-human IgG; conditions: one partner purified
T4 construct: leptin receptor (LepR), mouse; also called mLepR-eYFP; mLepR; source: HEK293, transiently transfected, on cells (fixed); not shown: eYFP, C-terminal, kept
T4 sequence (P48356 22-1162): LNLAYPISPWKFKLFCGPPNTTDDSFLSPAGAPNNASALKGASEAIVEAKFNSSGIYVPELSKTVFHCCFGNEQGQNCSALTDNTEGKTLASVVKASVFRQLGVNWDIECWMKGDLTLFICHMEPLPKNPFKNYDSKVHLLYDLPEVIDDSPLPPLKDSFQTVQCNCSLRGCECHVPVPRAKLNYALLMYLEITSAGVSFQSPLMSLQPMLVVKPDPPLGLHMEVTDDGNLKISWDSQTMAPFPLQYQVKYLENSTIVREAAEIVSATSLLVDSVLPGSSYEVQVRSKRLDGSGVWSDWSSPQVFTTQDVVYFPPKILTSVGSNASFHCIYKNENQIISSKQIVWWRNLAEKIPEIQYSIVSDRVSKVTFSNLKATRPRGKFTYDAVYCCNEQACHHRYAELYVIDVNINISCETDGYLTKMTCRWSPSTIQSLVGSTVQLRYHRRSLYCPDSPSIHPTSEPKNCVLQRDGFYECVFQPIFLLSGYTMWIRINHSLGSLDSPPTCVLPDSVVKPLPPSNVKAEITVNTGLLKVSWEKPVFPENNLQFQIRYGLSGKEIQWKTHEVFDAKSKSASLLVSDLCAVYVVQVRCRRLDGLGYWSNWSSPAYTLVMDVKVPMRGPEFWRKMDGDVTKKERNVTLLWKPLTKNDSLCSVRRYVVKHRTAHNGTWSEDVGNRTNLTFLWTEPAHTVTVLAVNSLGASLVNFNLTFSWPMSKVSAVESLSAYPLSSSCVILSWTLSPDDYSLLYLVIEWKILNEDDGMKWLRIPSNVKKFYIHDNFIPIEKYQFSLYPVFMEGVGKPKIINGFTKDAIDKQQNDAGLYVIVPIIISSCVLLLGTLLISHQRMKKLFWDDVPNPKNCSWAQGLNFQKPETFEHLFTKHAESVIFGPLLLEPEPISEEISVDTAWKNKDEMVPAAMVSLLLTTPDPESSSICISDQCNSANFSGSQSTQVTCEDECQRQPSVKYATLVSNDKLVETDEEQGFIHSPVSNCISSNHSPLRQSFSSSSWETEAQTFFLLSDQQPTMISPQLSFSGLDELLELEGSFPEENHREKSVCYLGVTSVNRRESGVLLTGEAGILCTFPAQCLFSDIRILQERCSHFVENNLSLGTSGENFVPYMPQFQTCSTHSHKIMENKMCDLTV

[6] = biological target: T5, extracellular domain of mouse leptin receptor with C-terminal 6xHis tag (mouse, UniProt P48356); assay: SPR; Biacore T200; LepR-ECD with His tag immobilised on CM5 chip by amine coupling; leptin-Fc and scFv-Fc antibodies in PBS pH 7.4, 1:2 serial dilutions, five concentrations, as analytes; 1:1 binding model; conditions: both partners purified
T5 construct: leptin receptor (LepR), mouse, extracellular domain; also called mLepR-ECD; mLepR-ECD-His; source: HEK293F, purified from supernatant (HisTrap FF Crude); not shown: 6xHis, C-terminal, kept
T5 sequence (P48356 22-839): as the sequence (P48356 22-839) above

B1: single-chain combinatorial antibody Ab06 (scFv-Fc) (scFv, V domains shown)
VH: QVQLVESGGGVVQPGRSLRLSCAASGFTFSSYGMHWVRQAPGKGLEWVAVISYDGSNKYYADSVKGRFTISRDNSKNTLYLQMNSLRAEDTAVYYCAKSLRNSFDYWGQGTLVTVSS
VL: EIVLTQSPGTLSLSPGERATLSCRASQSVSSNYLAWYQQKPGQAPRLLIYGASSRPTGIPDRFSGSGSGTDFTLTISRLEPEDFAVYYCQQYAASPLTFGGGTKLEIK
notes: identical to Ab11 except four residues in CDR3H; source: HEK293F, purified from supernatant (HiTrap Protein A)
With B1 the binding result [1] was “no binding”, the Kd [2] was 7.5 nM and the koff [2] was 0.052 s⁻¹. The kon [2] was 6.9e+06 M⁻¹ s⁻¹, the IC50 [3] was 40 nM and the “EC50, hLepR-luciferase (SIE luciferase reporter of STAT3 phosphorylation, HEK293)” value [4] was 3.2 nM. B1: no binding (tested: 5 ug/mL) [5].

B2: single-chain combinatorial antibody Ab11 (scFv-Fc) (scFv, V domains shown)
VH: QVQLVESGGGVVQPGRSLRLSCAASGFTFSSYGMHWVRQAPGKGLEWVAVISYDGSNKYYADSVKGRFTISRDNSKNTLYLQMNSLRAEDTAVYYCAKGYENYFDYWGQGTLVTVSS
VL: EIVLTQSPGTLSLSPGERATLSCRASQSVSSNYLAWYQQKPGQAPRLLIYGASSRPTGIPDRFSGSGSGTDFTLTISRLEPEDFAVYYCQQYAASPLTFGGGTKLEIK
notes: CDR3H holds the motif ENYF; source: HEK293F, purified from supernatant (HiTrap Protein A)
B2 was tested, and the Kd [6] was 200 nM.
